Reference: paper PMC8184850, “Cryo-EM structure of TFIIH/Rad4–Rad23–Rad33 in damaged DNA opening in nucleotide excision repair” (Nature Communications, 2021)

B1: -24/+24 AAF (dsDNA)
DNA 1: CCCATTCCAACCATCCCACTACCTGTCCATCTTCACTCAACTATCACCC
DNA 2: GGGTGATAGTTGAGTGAAGATGGACAGGTAGTGGGATGGTTGGAATGGG
modifications: N-2-acetylaminofluorene adduct on the single G of strand 1 (nt 25, position 0)
B2: -24*/+24 AAF (dsDNA)
DNA 1: CCCATTCCAACCATCCCACTACCTGTCCATCTTCACTCAACTATCACCC
DNA 2: GGGTGATAGTTGAGTGAAGATGGACAGGTAGTGGGATGGT
modifications: N-2-acetylaminofluorene adduct on the single G of strand 1 (nt 25, position 0)
B3: -24/+15 AAF (dsDNA)
DNA 1: CCCATTCCAACCATCCCACTACCTGTCCATCTTCACTCA
DNA 2: TGAGTGAAGATGGACAGGTAGTGGGATGGTTGGAATGGG
modifications: N-2-acetylaminofluorene adduct on the single G of strand 1 (nt 25); printed strand spans -24 to +14

Assays:
[1] = biological target: T1, coreTFIIH (7 subunits);Rad4-Rad23;Rad33 (Saccharomyces cerevisiae? (yeast, tfb6 …, UniProt Q00578;P06839;P32776;Q02939;Q04673;Q12004;Q3E7C1;P14736;P32628;Q04231 …, ||)); experiment: EMSA; 100 nM Rad33; Rad4-Rad23 0-100 nM; EMSA: 20 mM HEPES, 100 mM K-acetate, 2 mM Mg-acetate, 5 mM DTT, room temperature 20 min, 250 nM each component, 0.2x TBE agarose gel at 4 C (pH not stated in this buffer); details: protein: native;recombinant;recombinant; tags: TAP tags on Tfb4 and Ssl2; TEV-treated;His-purified, thrombin-digested;His (HisTrap-purified, pETDuet); copies: 1;1;1;1;1;1;1;1;1;1; label: 32P 5' end (T4 PNK) in EMSA; blunt
[2] = biological target: T2, coreTFIIH (7 subunits);Rad4-Rad23 (Saccharomyces cerevisiae? (yeast, tfb6 …, UniProt Q00578;P06839;P32776;Q02939;Q04673;Q12004;Q3E7C1;P14736;P32628 …, |)); experiment: EMSA; AMP-PNP, 2 mM Mg2+; EMSA: 20 mM HEPES, 100 mM K-acetate, 2 mM Mg-acetate, 5 mM DTT, room temperature 20 min, 250 nM each component, 0.2x TBE agarose gel at 4 C (pH not stated in this buffer); details: protein: native;recombinant; tags: TAP tags on Tfb4 and Ssl2; TEV-treated;His-purified, thrombin-digested; copies: 1;1;1;1;1;1;1;1;1; label: 32P 5' end (T4 PNK) in EMSA; blunt
[3] = biological target: T2, coreTFIIH (7 subunits);Rad4-Rad23; experiment: EMSA; ATP 4 mM, 2 mM Mg2+; EMSA: 20 mM HEPES, 100 mM K-acetate, 2 mM Mg-acetate, 5 mM DTT, room temperature 20 min, 250 nM each component, 0.2x TBE agarose gel at 4 C (pH not stated in this buffer); details: protein: native;recombinant; tags: TAP tags on Tfb4 and Ssl2; TEV-treated;His-purified, thrombin-digested; copies: 1;1;1;1;1;1;1;1;1; label: 32P 5' end (T4 PNK) in EMSA; 5' overhang on strand 1: 9 nt from printed strands (text says 10 nt)
[4] = biological target: T1, coreTFIIH (7 subunits);Rad4-Rad23;Rad33; experiment: glycerol gradient sedimentation; ATP; EMSA: 20 mM HEPES, 100 mM K-acetate, 2 mM Mg-acetate, 5 mM DTT, room temperature 20 min, 250 nM each component, 0.2x TBE agarose gel at 4 C (pH not stated in this buffer); details: protein: native;recombinant;recombinant; tags: TAP tags on Tfb4 and Ssl2; TEV-treated;His-purified, thrombin-digested;His (HisTrap-purified, pETDuet); copies: 1;1;1;1;1;1;1;1;1;1; label: 32P 5' end (T4 PNK) in EMSA; 5' overhang on strand 1: 9 nt from printed strands (text says 10 nt)

Binder	binding result [1]	binding result [2]	binding result [3]	binding result [4]
B1	binds	binds		
B2			binds	binds
B3		binds		
